Experiment: yeast display, Sf9 membrane polyspecificity reagent, FACS + sequencing; frameworks hold sequencing errors
In short: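 Using colony PCR, genes from sorted yeast display clones were amplified, then sequenced on MiSeq at 2 × 250 and filtered by CDR length. The clones had been stained with 10% biotinylated, detergent-solubilized Sf9 membrane reagent for 1 hour at 4 °C and sorted by FACS into low and high (top ~1%) gates on anti-HA and streptavidin fluorescence. Polyreactivity labels come from the gate of origin.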

QVQLVESGGGLVQAGGSLRLSCAASGSTFYENTMGWYRQAPGKERELVAAISVRGGSTYYADSVKGRFTISRDNEKKTVYLQMNRLKPEDTAVYYCAVLDVYRYRMDYSGQGTQVTVSS
polyreactivity (PSR sort gate): low polyreactivity

QVQLVESGGGLVQAGGSLRLSCAASGSTFYFYAMGWYRPAPGKERELVAAITYSGGSTYYADSVKGRFTISRDNAKNTVYLQMNSLKPEDTAVYYCAAQWRRHSTRSRYYYWGQGSQVTVSS
polyreactivity (PSR sort gate): high polyreactivity

QVQLVESGGGLVQAGGSLRLSCAASGSTFYFYDMGWYRQAPGKERELVATIDDGGGSTYYADSVKGRFTISRDNAKNTVYLQMNSLKPEDTAVYYCNADDSEYLIYDYWGQGTQVTVSS
polyreactivity (PSR sort gate): low polyreactivity

QVQLVESGGGLVQAGGSLRLSCAASGSTFYGNAMGWYRQAPGKERELVATIDSTAGTNYADSVKGRFTISRDNAKNTVYLQMNSLKPEDTAVYYCAREYSIYNPPGYLGTVEYDYWGQGTQVTVSS
polyreactivity (PSR sort gate): low polyreactivity

QVQLVESGGGLVQAGGSLRLSCAASGSTFYGNAMGWYRQAPGKERELVATISWSGGSTYYADSVKGRFTISRDNAKNTVYLQMNSLKPEDTAVYYCNAEITTKSLVTRYSWYGGDYWGQGTQVTVSS
polyreactivity (PSR sort gate): low polyreactivity

QVQLVESGGGLVQAGGSLRLSCAASGSTFYGYALGWYRQAPGKERELVAAITRSGGSTYYADSVKGRFTISRDNAKNTVYLQMNSLKPEDTEVYYCNKYGYKGGVGYDYWGQGTQVTVSS
polyreactivity (PSR sort gate): high polyreactivity

QVQLVESGGGLVQAGGSLRLSCAASGSTFYGYAMGWYRQAPGKERELVAAINWSGGRTYYADSVKGRFTISRDNAKNTVYLQMNSLKPEDTAVYYCAARGRYQPQFDYWGQGTQVTVSS
polyreactivity (PSR sort gate): high polyreactivity

QVQLVESGGGLVQAGGSLRLSCAASGSTFYHNVMGWYRQAPGKERELVASIYRGGSTYYADSVKGRFTISRDNAKNTVYLQMNSLKPEDTAVYYCAKEYKSLWWDGRMNYWGQGTQVTVSS
polyreactivity (PSR sort gate): low polyreactivity

QVQLVESGGGLVQAGGSLRLSCAASGSTFYHYAMGWYRKAPGKERELVAAISTSGGRTYYADSVKGRFTISRDNAKNTVYLQLNSLKPEDTAVYYCAARPGSWFPSVPSYNYWGQGTQVTVSS
polyreactivity (PSR sort gate): low polyreactivity

QVQLVESGGGLVQAGGSLRLSCAASGSTFYHYAMGWYRQAPGKERELVAAISTSGGRTYYADSVKGRFTISRDNAKNTVYLQMNSLKPEDTAVYYCAARPGSWYPSVPSYNYWGQGTQVTVSS
polyreactivity (PSR sort gate): low polyreactivity

QVQLVESGGGLVQAGGSLRLSCAASGSTFYINAMGWYRQAPGKERELVAAITSGGSTNYADSVKGRFTISRDNAKNTVYLQMNSLKPEDTAVYYCAKVSYYPWRYDYWGQGTQVTVSS
polyreactivity (PSR sort gate): low polyreactivity

QVQLVESGGGLVQAGGSLRLSCAASGSTFYINDMGWYRQAPGKERELVASISWRGGSTYADSVKGRFTISRDNAKNTDYLQMNSLKPEDTAVYYCAAEFDVYSHHWITSYDYWGQGTQVTVSS
polyreactivity (PSR sort gate): high polyreactivity

QVQLVESGGGLVQAGGSLRLSCAASGSTFYIYAMGWSRQAPGKERELVARISGSGGSTYYADSVKGRFTISRDNAKNTVYLQMNSLKPEDTAVYYCAADDIYKYYQYYAFPYYRYDYWGQGTQVTVSS
polyreactivity (PSR sort gate): low polyreactivity

QVQLVESGGGLVQAGGSLRLSCAASGSTFYIYAMGWYRQAPGKERELVAVITRRGGSTSYADSVKGRFTISRDNAKNTVYLQINSLKPEDTAVYYCAAKRTWPDVKYIRYGYWGQGTQVTVSS
polyreactivity (PSR sort gate): high polyreactivity

QVQLVESGGGLVQAGGSLRLSCAASGSTFYIYAMGWYRQAPGKERELVAVITRRGGSTSYADSVKGRFTISRDNAKNTVYLQMNSLKPEDTAVYYCAAKRTWPDVKYIRYGYWGQGAQVTVSS
polyreactivity (PSR sort gate): high polyreactivity

QVQLVESGGGLVQAGGSLRLSCAASGSTFYIYAMVWYRQAPGKERELVAAITGTGGSTYYADSVKGRFTISRDNAKNSVYLQMNSLKPEDTAVYYCAVGFGYYYKYGYWGQGTQVTVSS
polyreactivity (PSR sort gate): low polyreactivity

QVQLVESGGGLVQAGGSLRLSCAASGSTFYKNAMGWNRQAPGKERELVASISRSGGSTSYADSVKGRFTISRDNAKNTVYLQMNSLKPEDTAVYYCAATWRQHPGSMGYWGQGTQVTVSS
polyreactivity (PSR sort gate): high polyreactivity

QVQLVESGGGLVQAGGSLRLSCAASGSTFYKNAMGWYRQAPGKERELVAVINASGDSTYYADSVKGRFTISRDNAKNTVYLQMNSLKPEDTAVYYCAADHRGEYDYWGQGTQVTVSS
polyreactivity (PSR sort gate): low polyreactivity

QVQLVESGGGLVQAGGSLRLSCAASGSTFYKYAMGWSRQAPGKERELVASITGGTRTYYADSVKGRFTISRDNAKNTVYLQMNSLKPEDTAVYYCNVVGGRYLYSAYDYWGQGTQVTVSS
polyreactivity (PSR sort gate): low polyreactivity

QVQLVESGGGLVQAGGSLRLSCAASGSTFYKYAMGWYRQAPGIEPELVAAISRGGSTYYADSVKGRFTISRDNAKNTVYLQMNSLKPEDTAVYYCAAETVSYYSKYDYWGQGTQVTVSS
polyreactivity (PSR sort gate): low polyreactivity

QVQLVESGGGLVQAGGSLRLSCAASGSTFYLNAMGWYRQAPGKERELVATKNSSGSTYNADSVKGRFTISRDNAKNTVYLQMNILKPEDTAVYYCNAYGSDRLSLDDYWGQGTQVTVSS
polyreactivity (PSR sort gate): low polyreactivity

QVQLVESGGGLVQAGGSLRLSCAASGSTFYLNVMGWYRQAPGKERELVAAISSGDGSTYYADSVKGRFTISRDNAKNTVYLQMNSLKPEDTAVYYCAAEPDTEVDYDYWGQGTQVTVSS
polyreactivity (PSR sort gate): low polyreactivity

QVQLVESGGGLVQAGGSLRLSCAASGSTFYPNAKGWYRQAPGKDREFVAASSTSAGRTYYADSVKGRFTISRDNAKKTVYLQINSLKPEDTAVYYCNARYWVYYVYEYDSWGQGTQVTVSS
polyreactivity (PSR sort gate): low polyreactivity

QVQLVESGGGLVQAGGSLRLSCAASGSTFYPNAMGWYRQAPGKERELVAAISRGTRTKYADSVKGRFTISRDNAMNTVYLQMNSLKPEDTAVYYCAADTGTGLDWGQGTQVTVSS
polyreactivity (PSR sort gate): high polyreactivity

QVQLVESGGGLVQAGGSLRLSCAASGSTFYPNAMGWYRQAPGKERELVAAITGGGSTTYADSVKGRFTISRDNAKNTVYLQMNSLKQEDTAVYYCNTDGPRYARPYDSWGQGTQVTVSS
polyreactivity (PSR sort gate): low polyreactivity

QVQLVESGGGLVQAGGSLRLSCAASGSTFYPTYAMGWYRQAPGKERELVATITGSGGSTYYADSVKGRFTISRDNAKNTVYLQMNSLKPEDTAVYYCAADRWYSRYTRYGYWGQGTQVTVSS
polyreactivity (PSR sort gate): low polyreactivity

QVQLVESGGGLVQAGGSLRLSCAASGSTFYPYAKGWYRQAPRKERELVATITNSGGSTYYADSVKGRFTISRDNAKNTVYLQMNSLKPEDTAVYYCARVRSRNTGYYYWGQGTQVTVSS
polyreactivity (PSR sort gate): high polyreactivity

QVQLVESGGGLVQAGGSLRLSCAASGSTFYPYAMGWYRQAPGKEREFVAGISRSGGTTYYADSLKGRFTISRDNAKNTVYLQMNSLKPEDTAVYYCAVQIPYVYWSYDYWGQGTEVTVSS
polyreactivity (PSR sort gate): low polyreactivity

QVQLVESGGGLVQAGGSLRLSCAASGSTFYPYAMGWYRQAPGKERELVAAITTRGRTYYGDSVKGRFTISRDNAKYTVYLQMNSLKPEDTAVYYCNARRYFSRDTSGYNYWGQGTQVTVSS
polyreactivity (PSR sort gate): high polyreactivity

QVQLVESGGGLVQAGGSLRLSCAASGSTFYPYVMGWYRQAPGKERELVAGISYRGGITYYADSVKGRFTISRDYAKNTVYLQMNSLKPEDTAVYYCAADYWSVYLARKMDYWGQGTQVTVSS
polyreactivity (PSR sort gate): low polyreactivity

QVQLVESGGGLVQAGGSLRLSCAASGSTFYRNAMGWYRQAPGKERELVAGISRRGGSTYYADSVKGRFTISRDNAKNTVYLQMNSLKPEDTAVYYCNADYPGIPHNDYWGQGTQVTVSS
polyreactivity (PSR sort gate): low polyreactivity

QVQLVESGGGLVQAGGSLRLSCAASGSTFYRNVMGWYRQAPGKERELVAAISSGGSTYYADSVKGRFTISRDNAKNTVYLQMNSLKPEDTAVYYCARRLTREYDYWGQGTQVTVSS
polyreactivity (PSR sort gate): low polyreactivity

QVQLVESGGGLVQAGGSLRLSCAASGSTFYRYALGWYRQAPGKERELVAAISRSGGNTFYADSVKGRFTISRDNAKNTVYLQMNRLKPEDTAVYYCAALRSWYAQTSGMDYWGQGTHVTVSS
polyreactivity (PSR sort gate): high polyreactivity

QVQLVESGGGLVQAGGSLRLSCAASGSTFYRYAMGWYRQAPGKERELVAAISSDGTTYYADSVKGRFTISRDNAKNTVYLQMNSLKPEDTAVYYCAKRGYYRSRRYDYWGQGTQVTVSS
polyreactivity (PSR sort gate): high polyreactivity

QVQLVESGGGLVQAGGSLRLSCAASGSTFYRYAMGWYRQAPGKERELVAAISYRGGSTYYADSVKGRFTISRDNAKNTVYLQMNSLKPEDTAVYYCNKRSTRRYDYWGQGTQETVSS
polyreactivity (PSR sort gate): high polyreactivity

QVQLVESGGGLVQAGGSLRLSCAASGSTFYRYAMGWYRQAPGKERELVAGISSSGGSTYYADSVKGRFTISRDNAKNTVYLQMNSLKPEDTAVYYCAAVGQWGYGYWGQGTQVTVSS
polyreactivity (PSR sort gate): high polyreactivity

QVQLVESGGGLVQAGGSLRLSCAASGSTFYRYAMGWYRQAPGKERELVATISGGGRTNYADSVKGRFTISRDNAKNTVYLQMNCLKPEDTAVYYCAARGYTGRFSRVNVPFYYWGQGTQVTVSS
polyreactivity (PSR sort gate): high polyreactivity

QVQLVESGGGLVQAGGSLRLSCAASGSTFYSNAMGWDRQAPGKERELVASISWSSGSTYYADSVKGRFTISRDNAKNTVYLQMNSLKPEDTAVYYCATDAGGPYRFGYWGQGTQVTVSS
polyreactivity (PSR sort gate): low polyreactivity

QVQLVESGGGLVQAGGSLRLSCAASGSTFYSNAMGWYRQAPGKERELVAGIDTSDGSTNYADSVKGRITISRDNAKNTVYLQMNSLKPEDTAVYYCNTTLRDSRQYVDRAPYTRYDYWGQGTQVTVSS
polyreactivity (PSR sort gate): low polyreactivity

QVQLVESGGGLVQAGGSLRLSCAASGSTFYSNPMGWSRQAPGKESEFVAAISWSGGSTYYADSVKGRFTISRDNAKNSVYFQMYSLKPQDTAVYSCAKKPYYYAYGGYGYWGQGNQVTVSS
polyreactivity (PSR sort gate): high polyreactivity

QVQLVESGGGLVQAGGSLRLSCAASGSTFYSYAMGWYRQAPGKERELVAAIDWSGDNTNYADSVKGRFTISRDNAKNTVYLQMNSLKPEDTAVYYCAADWYYTRRRYNYWGQGTQVTVSS
polyreactivity (PSR sort gate): low polyreactivity

QVQLVESGGGLVQAGGSLRLSCAASGSTFYSYAMGWYRQAPGKERELVAAIDWSGTSTYYADSVKGRFTISRDNAKNTVYLQMNSLKPEDTAVYYCAARYTRGGSGPDYNYWGQGTQVTVSS
polyreactivity (PSR sort gate): high polyreactivity

QVQLVESGGGLVQAGGSLRLSCAASGSTFYSYAMGWYRQAPGKERELVAAISSSGGRTRYADSVKGRFTISRDNAKNTVYLQMNSLKPEDTAVYYCAARNRVRVGTRIGRIDEDYWGQGTQVTVSS
polyreactivity (PSR sort gate): high polyreactivity
